Where “and” joins values, the source holds several entries; their conditions need not be identical. Equal values may be shown once. One block for each molecule: values may come before it.
Experiments:
[1] = target: murine LRRC8C, full length (murine) (UniProt Q8R502); test: affinity purification with mass spectrometry; differentially tagged murine LRRC8A (or LRRC8A^SAM) and LRRC8C co-expressed in HEK293S GnTI- or LRRC8-/- cells at A:C DNA ratios of 1:1 or 1:3; tandem affinity purification (Ni-NTA, then Streptactin) in digitonin, 25 mM Tris pH 8.5, 250 mM NaCl, 4 °C; LC-MS/MS absolute quantification with isotope-labelled peptides
[2] = target: murine LRRC8C, full length (murine) (UniProt Q8R502); test: cryo-EM structure; tandem-purified LRRC8A/C (A:C DNA 1:1 and 1:3) in digitonin with tag-free Sb1 added at a 1.5 molar excess before vitrification; C1; high resolution only for the 1:1 sample
[3] = target: the molecule itself; test: cryo-EM structure; homomeric LRRC8C at 5 mg/ml in digitonin, three data sets, two of them with Sb1 added at a 1:1.5 molar excess (per LRRC8C subunit) as negative control; C7 symmetry
[4] = target: T1, endogenous LRRC8A of HEK293 cells (human (endogenous in HEK293T), UniProt Q8IWT6); test: affinity purification with mass spectrometry; pairs of the bait Sb1: endogenous LRRC8 channels from HEK293T (WT) or LRRC8^B,D,E-/- cells isolated on SBP-tagged Sb1 and Streptactin resin (Sb1 either expressed in the same cells or purified and bound to the resin before the lysate was loaded; which protocol for which sample is not told); 2% GDN lysis, 36 mM Tris pH 8.5, 150 mM NaCl; tryptic digest, LC-MS/MS
T1 construct: LRRC8A, endogenous in HEK293 cells; also called A subunit; SWELL1; source: endogenous, HEK293T and HEK293 LRRC8^B,D,E-/- cells, lysate in 2% GDN; isolated on SBP-tagged Sb1

[5] = target: T2, endogenous LRRC8C of HEK293 cells (human (endogenous in HEK293T), UniProt Q8TDW0 1-803); test: affinity purification with mass spectrometry; pairs of endogenous LRRC8 subunits in the channels isolated on SBP-tagged Sb1 from HEK293T (WT) or LRRC8^B,D,E-/- cells; shotgun LC-MS/MS and absolute quantification with two isotope-labelled reference peptides per subunit; conditions: partners not purified
T2 construct: LRRC8C, endogenous in HEK293 cells; also called C subunit; source: endogenous, HEK293T and HEK293 LRRC8^B,D,E-/- cells, lysate in 2% GDN
T2 sequence (looked up): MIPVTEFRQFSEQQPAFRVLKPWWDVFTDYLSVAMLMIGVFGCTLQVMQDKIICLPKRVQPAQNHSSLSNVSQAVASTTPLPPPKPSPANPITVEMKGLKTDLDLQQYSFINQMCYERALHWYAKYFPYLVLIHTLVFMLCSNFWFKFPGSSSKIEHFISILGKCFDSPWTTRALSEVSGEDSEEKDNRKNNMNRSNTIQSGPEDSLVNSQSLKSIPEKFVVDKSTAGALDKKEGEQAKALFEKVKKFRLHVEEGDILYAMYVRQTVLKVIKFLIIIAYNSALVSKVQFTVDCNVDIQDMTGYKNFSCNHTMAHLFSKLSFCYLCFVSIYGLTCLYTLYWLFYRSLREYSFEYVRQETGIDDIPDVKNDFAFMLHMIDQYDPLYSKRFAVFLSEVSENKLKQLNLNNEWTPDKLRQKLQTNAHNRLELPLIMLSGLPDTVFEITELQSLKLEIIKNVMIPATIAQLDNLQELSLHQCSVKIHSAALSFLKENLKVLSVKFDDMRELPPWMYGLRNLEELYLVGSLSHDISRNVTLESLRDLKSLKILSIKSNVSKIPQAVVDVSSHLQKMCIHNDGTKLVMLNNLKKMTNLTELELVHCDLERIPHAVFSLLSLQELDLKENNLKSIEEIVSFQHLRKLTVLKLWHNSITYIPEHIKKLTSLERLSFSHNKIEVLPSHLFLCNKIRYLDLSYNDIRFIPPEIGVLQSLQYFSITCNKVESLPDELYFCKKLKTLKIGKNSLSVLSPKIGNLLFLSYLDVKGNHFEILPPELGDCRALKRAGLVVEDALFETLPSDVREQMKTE

- stoichiometry N [1]: 2 A:C
Molecule: LRRC8A^SAM, construct for co-expression with LRRC8C (from UniProt Q80WG5 1-67; Q80WG5 93-810)

- stoichiometry N [2]: 2 A:C
- stoichiometry N [1]: 2 A:C and 1.8 A:C
Molecule: murine LRRC8A (from UniProt Q80WG5 1-810) (natural protein)

B1: murine LRRC8C, full length (natural protein, UniProt Q8R502 1-803, looked up)
chain: MIPVTEFRQFSEQQPAFRVLKPWWDVFTDYLSVAMLMIGVFGCTLQVMQDKIICLPKRVQPAQNHSSVPNVSQAVISTTPLPPPKPSPTNPATVEMKGLKTDLDLQQYSFINQMCYERALHWYAKYFPYLVLIHTLVFMLCSNFWFKFPGSSSKIEHFISILGKCFDSPWTTRALSEVSGEDSEEKDNRKNNMNRSGTIQSGPEGNLVRSQSLKSIPEKFVVDKSAAGALDKKEGEQAKALFEKVKKFRLHVEEGDILYAMYVRQTVLKVIKFLIIIAYNSALVSKVQFTVDCNVDIQDMTGYKNFSCNHTMAHLFSKLSFCYLCFVSIYGLTCLYTLYWLFYRSLREYSFEYVRQETGIDDIPDVKNDFAFMLHMIDQYDPLYSKRFAVFLSEVSENKLKQLNLNNEWTPDKLRQKLQTNAHNRLELPLIMLSGLPDTVFEITELQSLKLEIIKNVMIPATIAQLDNLQELCLHQCSVKIHSAALSFLKENLKVLSVKFDDMRELPPWMYGLRNLEELYLVGSLSHDISKNVTLESLRDLKSLKILSIKSNVSKIPQAVVDVSSHLQKMCVHNDGTKLVMLNNLKKMTNLTELELVHCDLERIPHAVFSLLSLQELDLKENNLKSIEEIVSFQHLRKLTVLKLWYNSIAYIPEHIKKLTSLERLFFSHNKVEVLPSHLFLCNKIRYLDLSYNDIRFIPPEIGVLQSLQYFSITCNKVESLPDELYFCKKLKTLKIGKNSLSVLSPKIGNLLFLSYLDIKGNHFEVLPPELGDCRALKRAGLVVEDALFETLPSDVREQMKAD
notes: LRRC8C, mouse; A remnant of the 3C site probably stays at the C-terminus; also called C subunit; C1; source: HEK293 LRRC8-/- cells (homomer; LRRC8A/C without Sb1; LRRC8A^SAM/C) or HEK293S GnTI- cells (LRRC8A/C/Sb1 samples), transfected, purified (Streptactin, SEC; tandem purification for heteromers) in digitonin; not shown: Venus, C-terminal, cleaved; myc, C-terminal, cleaved; SBP, C-terminal, …
- stoichiometry N [3]: 7

- binding result [4]: binds
B2: SBP-tagged sybody Sb1 (VHH)
VHH: QVQLVESGGGLVQAGGSLRLSCAASGFPVGRHFMYWYRQAPGKEREWVAAIYSYGEYTEYADSVKGRFTISRDNAKNTVYLQMNSLKPEDTAVYYCYVYVGNEYWGQGTQVTVSA
notes: as the chain of m3 (sybody Sb1), here with a C-terminal 3C site, myc tag and SBP tag (pcDXc3MS); they are in PDB 8B41 and PDB 7P5V; also called SBP-tagged Sb1; immobilized Sb1; not shown: myc, C-terminal, kept; SBP, C-terminal, kept

- stoichiometry N [5]: 2.9 A:C and 1.8 A:C
B3: endogenous LRRC8A of HEK293 cells (natural protein, human (endogenous in HEK293T), UniProt Q8IWT6 1-810, looked up)
chain: MIPVTELRYFADTQPAYRILKPWWDVFTDYISIVMLMIAVFGGTLQVTQDKMICLPCKWVTKDSCNDSFRGWAAPGPEPTYPNSTILPTPDTGPTGIKYDLDRHQYNYVDAVCYENRLHWFAKYFPYLVLLHTLIFLACSNFWFKFPRTSSKLEHFVSILLKCFDSPWTTRALSETVVEESDPKPAFSKMNGSMDKKSSTVSEDVEATVPMLQRTKSRIEQGIVDRSETGVLDKKEGEQAKALFEKVKKFRTHVEEGDIVYRLYMRQTIIKVIKFILIICYTVYYVHNIKFDVDCTVDIESLTGYRTYRCAHPLATLFKILASFYISLVIFYGLICMYTLWWMLRRSLKKYSFESIREESSYSDIPDVKNDFAFMLHLIDQYDPLYSKRFAVFLSEVSENKLRQLNLNNEWTLDKLRQRLTKNAQDKLELHLFMLSGIPDTVFDLVELEVLKLELIPDVTIPPSIAQLTGLKELWLYHTAAKIEAPALAFLRENLRALHIKFTDIKEIPLWIYSLKTLEELHLTGNLSAENNRYIVIDGLRELKRLKVLRLKSNLSKLPQVVTDVGVHLQKLSINNEGTKLIVLNSLKKMANLTELELIRCDLERIPHSIFSLHNLQEIDLKDNNLKTIEEIISFQHLHRLTCLKLWYNHIAYIPIQIGNLTNLERLYLNRNKIEKIPTQLFYCRKLRYLDLSHNNLTFLPADIGLLQNLQNLAITANRIETLPPELFQCRKLRALHLGNNVLQSLPSRVGELTNLTQIELRGNRLECLPVELGECPLLKRSGLVVEEDLFNTLPPEVKERLWRADKEQA
notes: LRRC8A, endogenous in HEK293 cells; also called A subunit; SWELL1; source: endogenous, HEK293T and HEK293 LRRC8^B,D,E-/- cells, lysate in 2% GDN; isolated on SBP-tagged Sb1

Reference: paper PMC9851909, “Structure of a volume-regulated heteromeric LRRC8A/C channel” (Nature Structural & Molecular Biology, 2022)
